Kd and fold higher affinity than Naglu-SapDC produced in cells expressing Naglu-SapDC alone data for 4 molecules are collected here from patent US20170232076A1.

Test [1] deals with cation-independent mannose-6-phosphate receptor (CI-M6PR), as used in the in vitro receptor binding assay (ELISA). The experiment in a line: in vitro CI-M6PR binding assay.
Test [2] shares this target. The experiment in a line: ELISA, CI-M6PR binding, detection with antibody to human Naglu. For orientation: ELISA stands for enzyme-linked immunosorbent assay.
The target in test [3] is cation-independent mannose-6-phosphate receptor (CI-M6PR) on cells overexpressing CI-M6PR. Briefly: cellular uptake assay on cells overexpressing CI-M6PR, intracellular Naglu activity read-out.

B1: Naglu-CREG fusion protein (produced in HT-1080 cells) (enzyme)
chain: DEAREAAAVRALVARLLGPGPAADFSVSVERALAAKPGLDTYSLGGGGAARVRVRGSTGVAAAAGLHRYLRDFCGCHVAWSGSQLRLPRPLPAVPGELTEATPNRYRYYQNVCTQSYSFVWWDWARWEREIDWMALNGINLALAWSGQEAIWQRVYLALGLTQAEINEFFTGPAFLAWGRMGNLHTWDGPLPPSWHIKQLYLQHRVLDQMRSFGMTPVLPAFAGHVPEAVTRVFPQVNVTKMGSWGHFNCSYSCSFLLAPEDPIFPIIGSLFLRELIKEFGTDHIYGADTFNEMQPPSSEPSYLAAATTAVYEAMTAVDTEAVWLLQGWLFQHQPQFWGPAQIRAVLGAVPRGRLLVLDLFAESQPVYTRTASFQGQPFIWCMLHNFGGNHGLFGALEAVNGGPEAARLFPNSTMVGTGMAPEGISQNEVVYSLMAELGWRKDPVPDLAAWVTSFAARRYGVSHPDAGAAWRLLLRSVYNCSGEACRGHNRSPLVRRPSLQMNTSIWYNRSDVFEAWRLLLTSAPSLATSPAFRYDLLDLTRQAVQELVSLYYEEARSAYLSKELASLLRAGGVLAYELLPALDEVLASDSRFLLGSWLEQARAAAVSEAEADFYEQNSRYQLTLWGPEGNILDYANKQLAGLVANYYTPRWRLFLEALVDSVAQGIPFQQHQFDKNVFQLEQAFVLSKQRYPSQPRGDTVDLAKKIFLKYYPRWVAGSWGAPGGGGGAAAAAGGGGGGAPGGGGGAAAAAGGGGGGAPGGGGGAAAAAGGGGGGAPRGGRDHGDWDEASRLPPLPPREDAARVARFVTHVSDWGALATISTLEAVRGRPFADVLSLSDGPPGAGSGVPYFYLSPLQLSVSNLQENPYATLTMTLAQTNFCKKHGFPLCVHIMLSGTVTKVNETEMDIAKHSLFIRHPEMKTWPSSHNWFFAKLNITNIWVLDYFGGPKIVTPEEYYNVTVQ
modifications: N-linked glycosylation sites in the CREG part marked (N); binding is M6P-dependent
For orientation: Kd means a measure of binding affinity in units of concentration. Regarding B1, the Kd was 2.5 nM in test [1] and 1.25 nM in test [2].

B2: Naglu-CREG fusion protein produced in HT-1080 cells overexpressing GNPT (enzyme)
chain: B1 chain
modifications: increased M6P on N-linked glycans (co-expression with GNPT)
Consider B2, for which the Kd in test [1] is 0.41 nM.

B3: Naglu-SapDC fusion protein (produced in HT-1080 cells) (enzyme)
chain: DEAREAAAVRALVARLLGPGPAADFSVSVERALAAKPGLDTYSLGGGGAARVRVRGSTGVAAAAGLHRYLRDFCGCHVAWSGSQLRLPRPLPAVPGELTEATPNRYRYYQNVCTQSYSFVWWDWARWEREIDWMALNGINLALAWSGQEAIWQRVYLALGLTQAEINEFFTGPAFLAWGRMGNLHTWDGPLPPSWHIKQLYLQHRVLDQMRSFGMTPVLPAFAGHVPEAVTRVFPQVNVTKMGSWGHFNCSYSCSFLLAPEDPIFPIIGSLFLRELIKEFGTDHIYGADTFNEMQPPSSEPSYLAAATTAVYEAMTAVDTEAVWLLQGWLFQHQPQFWGPAQIRAVLGAVPRGRLLVLDLFAESQPVYTRTASFQGQPFIWCMLHNFGGNHGLFGALEAVNGGPEAARLFPNSTMVGTGMAPEGISQNEVVYSLMAELGWRKDPVPDLAAWVTSFAARRYGVSHPDAGAAWRLLLRSVYNCSGEACRGHNRSPLVRRPSLQMNTSIWYNRSDVFEAWRLLLTSAPSLATSPAFRYDLLDLTRQAVQELVSLYYEEARSAYLSKELASLLRAGGVLAYELLPALDEVLASDSRFLLGSWLEQARAAAVSEAEADFYEQNSRYQLTLWGPEGNILDYANKQLAGLVANYYTPRWRLFLEALVDSVAQGIPFQQHQFDKNVFQLEQAFVLSKQRYPSQPRGDTVDLAKKIFLKYYPRWVAGSWGAPGGGGGAAAAAGGGGGGAPGGGGGAAAAAGGGGGGAPGGGGGAAAAAGGGGGGAPDGGFCEVCKKLVGYLDRNLEKNSTKQEILAALEKGCSFLPDPYQKQCDQFVAEYEPVLIEILVEVMDPSFVCLKIGACPSAHKPLLGTEKCIWGPSYWCQNTETAAQCNAVEHCKRHVWN
modifications: N-linked glycosylation site in the SapDC part marked (N); M6P content 0.75 mol/mol (M6P/Protein)
On to B3, for which the Kd in test [1] is 2.9 nM; in test [2], 5.5 nM; in test [3], 209 nM.

B4: Naglu-SapDC fusion protein produced in HT-1080 cells overexpressing GNPT (enzyme)
chain: B3 chain
modifications: increased M6P on N-linked glycans; M6P content 1.84 mol/mol (M6P/Protein)
In test [1], B4 gave a Kd of 0.23 nM. Also, in test [3], the Kd stood at 14.9 nM and the fold higher affinity than Naglu-SapDC produced in cells expressing Naglu-SapDC alone was 14 fold.
